Measured values published in paper PMC10065947.
Values belong to the binder of their own block, whether it stands above or below them.

Tests used:
SH3-588 [1] = target: SH3-588 (UniProt P06241)
SH3-588 [2] = target: SH3-588 (UniProt P06241); experiment: fluorescence polarisation
[3] = target: catechol O-methyltransferase (COMT), wild type (UniProt P22734)
[4] = target: naïve fusion of WT Fyn-SH3 and WT COMT (UniProt P06241)
SH3-003 = SH3-003 (UniProt P06241)
naïve fusion 2 = naïve fusion 2 (UniProt P06241)

catechol O-methyltransferase (COMT), wild type, sequence (P22734 44-264): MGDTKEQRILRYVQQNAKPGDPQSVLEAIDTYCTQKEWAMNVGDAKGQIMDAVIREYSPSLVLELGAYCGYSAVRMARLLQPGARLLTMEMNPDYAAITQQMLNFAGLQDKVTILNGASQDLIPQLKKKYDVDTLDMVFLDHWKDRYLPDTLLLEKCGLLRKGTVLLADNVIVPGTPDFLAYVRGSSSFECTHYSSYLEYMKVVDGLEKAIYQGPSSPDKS

B2: peptide 1 (peptide)
peptide: MKEARSAEAKEAGRGSGGSKNFLDY
HELM: PEPTIDE1{M.K.E.A.R.S.A.E.A.K.E.A.G.R.G.S.G.G.S.K.N.F.L.D.[O=C([C@H](Cc1ccc(O)c(O)c1)N[*:1])[*:2]].[am]}$$$$V2.0; N-terminus assumed
SMILES: CSCC[C@H](N)C(=O)N[C@@H](CCCCN)C(=O)N[C@@H](CCC(=O)O)C(=O)N[C@@H](C)C(=O)N[C@@H](CCCNC(=N)N)C(=O)N[C@@H](CO)C(=O)N[C@@H](C)C(=O)N[C@@H](CCC(=O)O)C(=O)N[C@@H](C)C(=O)N[C@@H](CCCCN)C(=O)N[C@@H](CCC(=O)O)C(=O)N[C@@H](C)C(=O)NCC(=O)N[C@@H](CCCNC(=N)N)C(=O)NCC(=O)N[C@@H](CO)C(=O)NCC(=O)NCC(=O)N[C@@H](CO)C(=O)N[C@@H](CCCCN)C(=O)N[C@@H](CC(N)=O)C(=O)N[C@@H](Cc1ccccc1)C(=O)N[C@@H](CC(C)C)C(=O)N[C@@H](CC(=O)O)C(=O)N[C@@H](Cc1ccc(O)c(O)c1)C(N)=O
KM of methylation (steady-state kinetics, MTase-Glo) [3]: 42 µM
KM of methylation (steady-state kinetics, MTase-Glo) [4]: 40 µM
KM of methylation (steady-state kinetics, MTase-Glo) (SH3-003): 30 µM
KM of methylation (steady-state kinetics, MTase-Glo) (SH3-588 [1]): 19 µM

B4: peptide 3 (peptide)
peptide: YDLFNKGSGGAPPLPPRNRPRRS
HELM: PEPTIDE1{[N[C@@H](Cc1ccc(O)c(O)c1)C(=O)[*:2]].D.L.F.N.K.G.S.G.G.A.P.P.L.P.P.R.N.R.P.R.R.S.[am]}$$$$V2.0; N-terminus assumed
SMILES: CC(C)C[C@H](NC(=O)[C@H](CC(=O)O)NC(=O)[C@@H](N)Cc1ccc(O)c(O)c1)C(=O)N[C@@H](Cc1ccccc1)C(=O)N[C@@H](CC(N)=O)C(=O)N[C@@H](CCCCN)C(=O)NCC(=O)N[C@@H](CO)C(=O)NCC(=O)NCC(=O)N[C@@H](C)C(=O)N1CCC[C@H]1C(=O)N1CCC[C@H]1C(=O)N[C@@H](CC(C)C)C(=O)N1CCC[C@H]1C(=O)N1CCC[C@H]1C(=O)N[C@@H](CCCNC(=N)N)C(=O)N[C@@H](CC(N)=O)C(=O)N[C@@H](CCCNC(=N)N)C(=O)N1CCC[C@H]1C(=O)N[C@@H](CCCNC(=N)N)C(=O)N[C@@H](CCCNC(=N)N)C(=O)N[C@@H](CO)C(N)=O
KM of methylation (steady-state kinetics, MTase-Glo) (SH3-588 [1]): 6 µM

B5: peptide 2 (peptide)
peptide: EWAPPLPPRNRPRRSGGSKETYSK
HELM: PEPTIDE1{E.W.A.P.P.L.P.P.R.N.R.P.R.R.S.G.G.S.K.E.T.[O=C([C@H](Cc1ccc(O)c(O)c1)N[*:1])[*:2]].S.K.[am]}$$$$V2.0; N-terminus assumed
SMILES: CC(C)C[C@H](NC(=O)[C@@H]1CCCN1C(=O)[C@@H]1CCCN1C(=O)[C@H](C)NC(=O)[C@H](Cc1c[nH]c2ccccc12)NC(=O)[C@@H](N)CCC(=O)O)C(=O)N1CCC[C@H]1C(=O)N1CCC[C@H]1C(=O)N[C@@H](CCCNC(=N)N)C(=O)N[C@@H](CC(N)=O)C(=O)N[C@@H](CCCNC(=N)N)C(=O)N1CCC[C@H]1C(=O)N[C@@H](CCCNC(=N)N)C(=O)N[C@@H](CCCNC(=N)N)C(=O)N[C@@H](CO)C(=O)NCC(=O)NCC(=O)N[C@@H](CO)C(=O)N[C@@H](CCCCN)C(=O)N[C@@H](CCC(=O)O)C(=O)N[C@H](C(=O)N[C@@H](Cc1ccc(O)c(O)c1)C(=O)N[C@@H](CO)C(=O)N[C@@H](CCCCN)C(N)=O)[C@@H](C)O
KM of methylation (steady-state kinetics, MTase-Glo) [3]: 132 µM

The next lines start with the values.

KM of methylation (steady-state kinetics, MTase-Glo) (SH3-588 [1]): 1.5 µM
Kd (SH3-588 [2]): 22 µM
B1: peptide 5 (peptide)
peptide: APPAPPRNRPRRSGKNFLDY
HELM: PEPTIDE1{A.P.P.A.P.P.R.N.R.P.R.R.S.G.K.N.F.L.D.[O=C([C@H](Cc1ccc(O)c(O)c1)N[*:1])[*:2]].[am]}$$$$V2.0; N-terminus assumed
SMILES: CC(C)C[C@H](NC(=O)[C@H](Cc1ccccc1)NC(=O)[C@H](CC(N)=O)NC(=O)[C@H](CCCCN)NC(=O)CNC(=O)[C@H](CO)NC(=O)[C@H](CCCNC(=N)N)NC(=O)[C@H](CCCNC(=N)N)NC(=O)[C@@H]1CCCN1C(=O)[C@H](CCCNC(=N)N)NC(=O)[C@H](CC(N)=O)NC(=O)[C@H](CCCNC(=N)N)NC(=O)[C@@H]1CCCN1C(=O)[C@@H]1CCCN1C(=O)[C@H](C)NC(=O)[C@@H]1CCCN1C(=O)[C@@H]1CCCN1C(=O)[C@H](C)N)C(=O)N[C@@H](CC(=O)O)C(=O)N[C@@H](Cc1ccc(O)c(O)c1)C(N)=O

KM of methylation (steady-state kinetics, MTase-Glo) (naïve fusion 2): 0.6 µM
KM of methylation (steady-state kinetics, MTase-Glo) [4]: 400 µM
KM of methylation (steady-state kinetics, MTase-Glo) (SH3-588 [1]): 130 µM
B3: peptide 7 (peptide)
peptide: EWAPPLPPRNRPRRSYSK
HELM: PEPTIDE1{E.W.A.P.P.L.P.P.R.N.R.P.R.R.S.[O=C([C@H](Cc1ccc(O)c(O)c1)N[*:1])[*:2]].S.K.[am]}$$$$V2.0; N-terminus assumed
SMILES: CC(C)C[C@H](NC(=O)[C@@H]1CCCN1C(=O)[C@@H]1CCCN1C(=O)[C@H](C)NC(=O)[C@H](Cc1c[nH]c2ccccc12)NC(=O)[C@@H](N)CCC(=O)O)C(=O)N1CCC[C@H]1C(=O)N1CCC[C@H]1C(=O)N[C@@H](CCCNC(=N)N)C(=O)N[C@@H](CC(N)=O)C(=O)N[C@@H](CCCNC(=N)N)C(=O)N1CCC[C@H]1C(=O)N[C@@H](CCCNC(=N)N)C(=O)N[C@@H](CCCNC(=N)N)C(=O)N[C@@H](CO)C(=O)N[C@@H](Cc1ccc(O)c(O)c1)C(=O)N[C@@H](CO)C(=O)N[C@@H](CCCCN)C(N)=O

Kd (SH3-588 [2]): 0.69 µM
B6: peptide 4 (peptide)
peptide: APPLPPRNRPRRSGKNFLDY
HELM: PEPTIDE1{A.P.P.L.P.P.R.N.R.P.R.R.S.G.K.N.F.L.D.[O=C([C@H](Cc1ccc(O)c(O)c1)N[*:1])[*:2]].[am]}$$$$V2.0; N-terminus assumed
SMILES: CC(C)C[C@H](NC(=O)[C@H](Cc1ccccc1)NC(=O)[C@H](CC(N)=O)NC(=O)[C@H](CCCCN)NC(=O)CNC(=O)[C@H](CO)NC(=O)[C@H](CCCNC(=N)N)NC(=O)[C@H](CCCNC(=N)N)NC(=O)[C@@H]1CCCN1C(=O)[C@H](CCCNC(=N)N)NC(=O)[C@H](CC(N)=O)NC(=O)[C@H](CCCNC(=N)N)NC(=O)[C@@H]1CCCN1C(=O)[C@@H]1CCCN1C(=O)[C@H](CC(C)C)NC(=O)[C@@H]1CCCN1C(=O)[C@@H]1CCCN1C(=O)[C@H](C)N)C(=O)N[C@@H](CC(=O)O)C(=O)N[C@@H](Cc1ccc(O)c(O)c1)C(N)=O
